T1: IFNAR1 (human, UniProt P17181 28-557)
T1 sequence (looked up): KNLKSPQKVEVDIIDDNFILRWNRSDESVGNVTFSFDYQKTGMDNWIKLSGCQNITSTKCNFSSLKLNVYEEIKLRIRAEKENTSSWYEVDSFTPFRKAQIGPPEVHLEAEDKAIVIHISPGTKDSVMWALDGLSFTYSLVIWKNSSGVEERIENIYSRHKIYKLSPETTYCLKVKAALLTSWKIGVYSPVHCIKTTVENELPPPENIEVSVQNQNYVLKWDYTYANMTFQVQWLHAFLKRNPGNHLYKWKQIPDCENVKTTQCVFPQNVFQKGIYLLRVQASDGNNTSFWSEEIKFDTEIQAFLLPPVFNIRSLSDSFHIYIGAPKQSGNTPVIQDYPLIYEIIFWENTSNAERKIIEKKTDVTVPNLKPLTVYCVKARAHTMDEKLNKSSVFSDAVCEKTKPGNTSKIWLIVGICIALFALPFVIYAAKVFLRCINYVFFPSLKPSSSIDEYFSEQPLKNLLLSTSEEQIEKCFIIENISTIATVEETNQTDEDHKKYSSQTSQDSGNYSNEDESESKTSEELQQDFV

T2: recombinant human APRIL (R&D cat: 5860-AP-010/CF) (human, UniProt O75888 105-250, limits assumed)
T2 sequence (looked up): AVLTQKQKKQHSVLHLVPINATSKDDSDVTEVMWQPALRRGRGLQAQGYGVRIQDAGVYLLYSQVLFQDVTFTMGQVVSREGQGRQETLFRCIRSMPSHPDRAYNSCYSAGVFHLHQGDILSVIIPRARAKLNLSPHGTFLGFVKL

T3: APRIL (Acro Biosystems, Cat: APL-H52D1) (UniProt O75888 115-250, limits assumed)
T3 construct: also called ARPIL
T3 sequence (looked up): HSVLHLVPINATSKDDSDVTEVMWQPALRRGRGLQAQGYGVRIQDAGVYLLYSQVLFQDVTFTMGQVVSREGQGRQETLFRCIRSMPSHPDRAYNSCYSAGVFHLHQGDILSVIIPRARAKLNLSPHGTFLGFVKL


Experiments:
IFNAR1 [1] = molecular target: T1, IFNAR1; experiment: cell-based or functional assay
IFNAR1 [2] = molecular target: T1, IFNAR1; experiment: cell-based or functional assay; remark: listed apart in the source
[3] = molecular target: T4, recombinant human BAFF (R&D cat: 7537-BF-025/CF) (human, UniProt Q9Y275 134-285); experiment: cell-based or functional assay
[4] = molecular target: T2, recombinant human APRIL (R&D cat: …); experiment: cell-based or functional assay
[5] = molecular target: T3, APRIL (Acro Biosystems, Cat: APL-H52D1); experiment: ELISA, APRIL coated; reference telitacicept
[6] = molecular target: T3, APRIL (Acro Biosystems, Cat: APL-H52D1); experiment: ELISA, APRIL coated at 1 ug/mL, anti-human Fc-HRP, OD450
Protocol: The capabilities of fusion proteins B606401, B637302, B746201, and B805201 to bind to BAFF and APRIL were assessed by ELISA as follows:
BAFF (PeproTech, Cat: 310-13) or ARPIL (Acro Biosystems, Cat: APL-H52D1) was diluted to 1 μg/mL with PBS, and a 96-well plate was coated with the dilution overnight at 4° C. The plate was washed with PBST and blocked with Blocking Buffer (PBST containing 1% BSA) at 37° C. for 1 h. The plate was tapped. The test antibodies were diluted with Blocking Buffer. Incubation was performed at 37° C. for 1.5 h. The plate was washed with PBST. An HRP-mouse anti-human Fc antibody (GenScript, Cat: A01854-200) was diluted with Blocking Buffer. Incubation was performed at 37° C. for 40 min. The plate was washed with PBST. 100 μL of TMB substrate solution (Biopanda, Cat: TMB-S-003) was added, and color development was performed at 37° C. for 3 min. 100 μL of ELISA stop solution (Solarbio, Cat: C1058) was added. OD450 was measured.

[7] = molecular target: T4, recombinant human BAFF (R&D cat: …); experiment: cell-based or functional assay; remark: listed apart in the source

IC50, inhibition of IFN-alpha-induced in vitro differentiation of B cells into plasma cells (CD27+ CD38+) (IFNAR1 [1]) | IC50 (nM), inhibition of the activity of type I interferons (IFN-beta, HEK-Blue IFN-alpha/beta reporter cells) (IFNAR1 [2]) | CD27+ CD38+ plasma cell count, mean value, BAFF + APRIL-induced (both ligands together), drug at 100 nM (IgG1: 2496) [3] | CD27+ CD38+ plasma cell count, mean value, BAFF + APRIL-induced (both ligands together), drug at 1000 nM (IgG1: 2279) [3] | CD27+ CD38+ plasma cell count, mean value, BAFF + APRIL-induced (both ligands together), drug at 10 nM (IgG1: 2687) [4] | CD27+ CD38+ plasma cell count, mean value, BAFF + APRIL-induced (both ligands together), drug at 100 nM (IgG1: 2496) [4] | CD27+ CD38+ plasma cell count, mean value, BAFF + APRIL-induced (both ligands together), drug at 1000 nM (IgG1: 2279) [4] | EC50 relative to telitacicept [5] | EC50 [6] | Emax [6] | Flow cytometry proliferating B cell proportion (%), mean value, BAFF-induced, drug at 10 nM (IgG1: 40.15) [7] | Flow cytometry proliferating B cell proportion (%), mean value, BAFF-induced, drug at 100 nM (IgG1: 40.60) [7] | Flow cytometry proliferating B cell proportion (%), mean value, BAFF-induced, drug at 1000 nM (IgG1: 33.97) [7] | Binder
1.9 nM | 1.64 nM | 520 cells | 410 cells | 575 cells | 520 cells | 410 cells | 0.333 fold | 0.179 nM | 2.8 |  |  |  | B746201 (other, Fusion protein of anifrolumab, TACI-19-16 and BCMA-ECD-2 (C-terminus of the heavy chain)) heavy: EVQLVQSGAEVKKPGESLKISCKGSGYIFTNYWIAWVRQMPGKGLESMGIIYPGDSDIRYSPSFQGQVTISADKSITTAYLQWSSLKASDTAMYYCARHDIEGFDYWGRGTLVTVSSASTKGPSVFPLAPSSKSTSGGTAALGCLVKDYFPEPVTVSWNSGALTSGVHTFPAVLQSSGLYSLSSVVTVPSSSLGTQTYICNVNHKPSNTKVDKRVEPKSCDKTHTCPPCPAPEFEGGPSVFLFPPKPKDTLMISRTPEVTCVVVDVSHEDPEVKFNWYVDGVEVHNAKTKPREEQYNSTYRVVSVLTVLHQDWLNGKEYKCKVSNKALPASIEKTISKAKGQPREPQVYTLPPSRDELTKNQVSLTCLVKGFYPSDIAVEWESNGQPENNYKTTPPVLDSDGSFFLYSKLTVDKSRWQQGNVFSCSVMHEALHNHYTQKSLSLSPGKGGGGSGGGGSGGGGSMLQMAGQCSQNEYFDSLLHACIPCQLRCSSNTPPLTCQRYCSTSCREEQGEFYDHLLRDCISCASICGQHPKQCAAFCE light: EIVLTQSPGTLSLSPGERATLSCRASQSVSSSFFAWYQQKPGQAPRLLIYGASSRATGIPDRLSGSGSGTDFTLTITRLEPEDFAVYYCQQYDSSAITFGQGTRLEIKRTVAAPSVFIFPPSDEQLKSGTASVVCLLNNFYPREAKVQWKVDNALQSGNSQESVTEQDSKDSTYSLSSTLTLSKADYEKHKVYACEVTHQGLSSPVTKSFNRGEC
6.21 nM | 1.63 nM | 426 cells | 438 cells | 434 cells | 426 cells | 438 cells | 0.333 fold | 0.182 nM | 2.85 | 20.4% | 24.3% | 15% | B805201 (other, Fusion protein of anifrolumab and TACI-19-16 (C-terminus of the heavy chain); also called B80521) heavy: EVQLVQSGAEVKKPGESLKISCKGSGYIFTNYWIAWVRQMPGKGLESMGIIYPGDSDIRYSPSFQGQVTISADKSITTAYLQWSSLKASDTAMYYCARHDIEGFDYWGRGTLVTVSSASTKGPSVFPLAPSSKSTSGGTAALGCLVKDYFPEPVTVSWNSGALTSGVHTFPAVLQSSGLYSLSSVVTVPSSSLGTQTYICNVNHKPSNTKVDKRVEPKSCDKTHTCPPCPAPEFEGGPSVFLFPPKPKDTLMISRTPEVTCVVVDVSHEDPEVKFNWYVDGVEVHNAKTKPREEQYNSTYRVVSVLTVLHQDWLNGKEYKCKVSNKALPASIEKTISKAKGQPREPQVYTLPPSRDELTKNQVSLTCLVKGFYPSDIAVEWESNGQPENNYKTTPPVLDSDGSFFLYSKLTVDKSRWQQGNVFSCSVMHEALHNHYTQKSLSLSPGKGGGGSGGGGSGGGGSSTSCREEQGEFYDHLLRDCISCASICGQHPKQCAAFCE light: EIVLTQSPGTLSLSPGERATLSCRASQSVSSSFFAWYQQKPGQAPRLLIYGASSRATGIPDRLSGSGSGTDFTLTITRLEPEDFAVYYCQQYDSSAITFGQGTRLEIKRTVAAPSVFIFPPSDEQLKSGTASVVCLLNNFYPREAKVQWKVDNALQSGNSQESVTEQDSKDSTYSLSSTLTLSKADYEKHKVYACEVTHQGLSSPVTKSFNRGEC

Reference: patent publication US20260056186A1 (JIANGSU HENGRUI PHARMACEUTICALS, published 2026)
